Laboratory results as given in article PMC10259489, “Identification of epigenetic modulators as determinants of nuclear size and shape” (eLife, 2023).
Blank lines part the entries; values can stand above or below the binder they belong to.

Key:
[1] = target: T1, GST-lamin A (aa 389–646), entire Ig-fold and C-terminus (human, UniProt P02545 389-646); test: pull-down; calf thymus histone pull-down with GST-lamin A (wild type or C522A) and GST-lamin C (389–572) co-incubated, with or without DTT; settings: both partners purified
T1 construct: pGEX4T1 construct; also called full-length lamin A tail; source: E. coli Rosetta 2, purified (glutathione Sepharose 4B); not shown: GST, N-terminal, kept
T1 sequence (looked up): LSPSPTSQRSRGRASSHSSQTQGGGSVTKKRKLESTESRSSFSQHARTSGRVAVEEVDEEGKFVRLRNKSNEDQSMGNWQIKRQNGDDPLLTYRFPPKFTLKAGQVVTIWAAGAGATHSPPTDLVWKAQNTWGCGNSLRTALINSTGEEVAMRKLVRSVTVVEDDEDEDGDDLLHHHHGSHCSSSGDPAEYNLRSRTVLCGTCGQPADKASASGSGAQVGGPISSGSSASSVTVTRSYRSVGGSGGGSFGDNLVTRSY

[2] = target: T2, histone H3R8me2/K9me2 peptide (R8me2, K9me2); test: peptide or protein array; MODified histone peptide array (Active Motif, 384 peptides spotted); 10 nM purified GST-lamin A (pACS37) in 100 mM KCl, 20 mM HEPES pH 7.5, 1 mM EDTA, 0.1 mM DTT, 10% glycerol, room temperature 1 hr; detected with anti-GST and HRP secondary, ECL; settings: both partners purified
T2 chain: ARTKQTARKSTGGKAPRKQ

binding result [1]: binds
B1: GST-lamin C (aa 389–572), C-terminal region of lamin C (domain or fragment, human, UniProt P02545-2 389-572, looked up)
chain: LSPSPTSQRSRGRASSHSSQTQGGGSVTKKRKLESTESRSSFSQHARTSGRVAVEEVDEEGKFVRLRNKSNEDQSMGNWQIKRQNGDDPLLTYRFPPKFTLKAGQVVTIWAAGAGATHSPPTDLVWKAQNTWGCGNSLRTALINSTGEEVAMRKLVRSVTVVEDDEDEDGDDLLHHHHVSGSRR
notes: pGEX4T1 construct; source: E. coli Rosetta 2, purified (glutathione Sepharose 4B); not shown: GST, N-terminal, kept

fold signal against H3K9me2 [2]: ~5 fold
B2: GST-lamin A (506–646) (domain or fragment, human, UniProt P02545 506-646, looked up)
chain: HSPPTDLVWKAQNTWGCGNSLRTALINSTGEEVAMRKLVRSVTVVEDDEDEDGDDLLHHHHGSHCSSSGDPAEYNLRSRTVLCGTCGQPADKASASGSGAQVGGPISSGSSASSVTVTRSYRSVGGSGGGSFGDNLVTRSY
notes: detected by anti-GST; also called GST-lamin A (pACS37); source: E. coli Rosetta 2, purified (glutathione Sepharose 4B); not shown: GST, N-terminal, kept
